This note sets out measurements from patent publication US20190375835A1.

For one assay, the target named is soluble TNF-alpha (UniProt P01375). The experiment in a line: cell-based or functional assay.
The target in a further assay is macrophages (FcR). The experiment in a line: cell-based or functional assay.

Sequence of soluble TNF-alpha (P01375 77-233 limits assumed): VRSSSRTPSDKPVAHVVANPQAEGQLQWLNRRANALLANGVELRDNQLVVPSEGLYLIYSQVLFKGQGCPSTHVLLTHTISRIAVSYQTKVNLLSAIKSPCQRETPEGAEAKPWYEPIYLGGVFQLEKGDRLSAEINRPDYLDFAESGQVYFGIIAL

For “Humira antibody from Abbott (commercial adalimumab)”, the phagocytosis value (MFI 37°C - MFI 4°C, arbitrary unit) with soluble TNF-alpha turned out to be 12.5 MFI. For the same substance, in the assay with macrophages (FcR), the phagocytosis (MFI 37°C - MFI 4°C) in the presence of IVIg 1 mg/ml worked out at 6.72 MFI.
In the assay with soluble TNF-alpha, “transgenically produced adalimumab antibody (purified from the milk of transgenic goats, glycosylated)” came in with a phagocytosis value (MFI 37°C - MFI 4°C, arbitrary unit) of 15 MFI. Moreover, the phagocytosis (MFI 37°C - MFI 4°C) in the presence of IVIg 1 mg/ml with macrophages (FcR) was determined as 13.3 MFI.
